# Assay results from publication PMC7372559 (ACS Chemical Biology, 2020).
# Changes are numbered by the printed parent chain. Names and notes keep the numbering of the source.
# B1: OphMA V404T, full-length, His-tagged (enzyme)
# chain: METSTQTKAGSLTIVGTGIESIGQMTLQALSYIEAAAKVFYCVIDPATEAFILTKNKNCVDLYQYYDNGKSRLNTYTQMSELMVREVRKGLDVVGVFYGHPGVFVNPSHRALAIAKSEGYRARMLPGVSAEDCLFADLCIDPSNPGCLTYEASDFLIRDRPVSIHSHLVLFQVGCVGIADFNFTGFDNNKFGVLVDRLEQEYGAEHPVVHYIAAMMPHQDPVTDKYTVAQLREPEIAKRVGGVSTFYIPPKARKASNLDIIRRLELLPAGQVPDKKARIYPANQWEPDVPEVEPYRPSDQAAIAQLADHAPPEQYQPLATSKAMSDVMTKLALDPKALADYKADHRAFAQSVPDLTPQERAALELGDSWAIRCAMKNMPSSLLDAARESGEEASQNGFPWVIVTGVIGVIGSVMSTE
# modifications: backbone N-methylation: 10-fold methylated species most abundant
# B2: OphMA V406F, full-length, His-tagged (enzyme)
# chain: B1 chain with T404V, V406F
# modifications: backbone N-methylation: a tetramethylated species and, to a lesser extent, a trimethylated species
# B3: OphMA I407F, full-length, His-tagged (enzyme)
# chain: B1 chain with T404V, I407F
# modifications: backbone N-methylation: mainly a tetramethylated species with some pentamethylated species
# B4: OphMA V406T, full-length, His-tagged (enzyme)
# chain: B1 chain with T404V, V406T
# modifications: backbone N-methylation: 3-fold methylated species most abundant
# B5: OphMA V403F, full-length, His-tagged (enzyme)
# chain: B1 chain with V403F, T404V
# modifications: backbone N-methylation: comparably abundant monomethylated, dimethylated, trimethylated and tetramethylated species
# B6: OphMA V404F, full-length, His-tagged (enzyme)
# chain: B1 chain with T404F
# modifications: backbone N-methylation: mainly monomethylated
# B7: OphMA I407T, full-length, His-tagged (enzyme)
# chain: B1 chain with T404V, I407T
# modifications: backbone N-methylation: 9-fold methylated species most abundant
# B8: OphMAΔC6-V404F (crystallised with SAH) (enzyme)
# chain: METSTQTKAGSLTIVGTGIESIGQMTLQALSYIEAAAKVFYCVIDPATEAFILTKNKNCVDLYQYYDNGKSRLNTYTQMSELMVREVRKGLDVVGVFYGHPGVFVNPSHRALAIAKSEGYRARMLPGVSAEDCLFADLCIDPSNPGCLTYEASDFLIRDRPVSIHSHLVLFQVGCVGIADFNFTGFDNNKFGVLVDRLEQEYGAEHPVVHYIAAMMPHQDPVTDKYTVAQLREPEIAKRVGGVSTFYIPPKARKASNLDIIRRLELLPAGQVPDKKARIYPANQWEPDVPEVEPYRPSDQAAIAQLADHAPPEQYQPLATSKAMSDVMTKLALDPKALADYKADHRAFAQSVPDLTPQERAALELGDSWAIRCAMKNMPSSLLDAARESGEEASQNGFPWVIVFGVIGVIG
# modifications: backbone N-methyl at Val401 and Val403 (in the crystal structure)
# Molecular target: the molecule itself
# Assay: SEC; Superdex-200 Increase column, 25 mM Tris-HCl (pH 8.0), 10% (v/v) glycerol, 100 mM NaCl; retention time of mutants compared with wild type
row,Protein,stoichiometry N
1,B1,2
2,B2,2
3,B3,2
4,B4,2
5,B5,2
6,B6,2
7,B7,2

# Molecular target: the molecule itself
# Assay: crystal structure; hanging drop, 16 °C; protein (30-50 mg/mL) preincubated with 3 mM SAM; 0.3-0.4 M KSCN, 1.8-2.4 M sodium malonate, 0.1 M bicine pH 8.5-9.3; SAH bound
row,Protein,binding result
1,B8,binds
